Test [1] concerns the target T1, recombinant hPDGFRB ectodomain (human, UniProt P09619 33-532).
T1 construct: extracellular domain; also called hPDGFRB-ECD; human PDGFRB ECD
The experiment in a line: phage ELISA and binding assay on hPDGFRB-ECD; values only in FIG. 5. A general note: ELISA stands for enzyme-linked immunosorbent assay.

The target in test [2] is T2, recombinant human extracellular domain of IGF2R (human, UniProt P11717 41-2304).
T2 construct: extracellular domain; Recombinant, immobilized on plates; also called hIGF2R-ECD; human IGF2R ectodomain (ECD)
In words: direct binding assay of the Alexa Fluor 647 conjugate on hIGF2R-ECD, one-site specific binding fit. The protocol: These conjugates were then subjected to direct binding assays on immobilized hIGF2R-ECD, meaning that plates were read out immediately after washing, without additional detection steps. […] For detailed analysis, binding parameters KD and Bₘₐₓ were calculated in Graphpad (version 8.3), using one-site specific binding analysis (FIG. 8D).
Based on their high affinity and binding to non-overlapping receptor epitopes, VHHs 13F11 and 13E8 were selected for the design of biparatopic and bivalent VHH constructs. Two VHHs were fused with a flexible linker, consisting of three Gly-Gly-Gly-Gly-Ser repeats (FIG. 8A). The sequences were codon optimized for expression in E. coli and obtained as synthesized DNA fragments from GeneArt. The DNA fragments encoding VHHs were cloned into a vector pET28-based vector introducing a C-terminal free cysteine for site-directed conjugation and His6 tag for IMAC purification (FIG. 8A). The VHH constructs were produced and purified as described in example 4. […] In a similar binding assay, IR dye 800 (IRD800) conjugates were prepared (as outlined in example 10.2) of the monomeric VHHs 13F11 and 13E8, the biparatopic VHH construct 13F11-13E8, the reciprocal biparatopic construct 13E8-13F11, the bivalent VHH construct 13F11-13F11, and the non-binding (control-) VHH R2. Conjugated constructs were then subjected to binding assay as described above.

In test [3] the target is T3, recombinant rPDGFRB ectodomain (rat, UniProt Q05030 32-531).
T3 construct: extracellular domain; also called rPDGFRB-ECD; rat PDGFRB ECD
T3 sequence (looked up): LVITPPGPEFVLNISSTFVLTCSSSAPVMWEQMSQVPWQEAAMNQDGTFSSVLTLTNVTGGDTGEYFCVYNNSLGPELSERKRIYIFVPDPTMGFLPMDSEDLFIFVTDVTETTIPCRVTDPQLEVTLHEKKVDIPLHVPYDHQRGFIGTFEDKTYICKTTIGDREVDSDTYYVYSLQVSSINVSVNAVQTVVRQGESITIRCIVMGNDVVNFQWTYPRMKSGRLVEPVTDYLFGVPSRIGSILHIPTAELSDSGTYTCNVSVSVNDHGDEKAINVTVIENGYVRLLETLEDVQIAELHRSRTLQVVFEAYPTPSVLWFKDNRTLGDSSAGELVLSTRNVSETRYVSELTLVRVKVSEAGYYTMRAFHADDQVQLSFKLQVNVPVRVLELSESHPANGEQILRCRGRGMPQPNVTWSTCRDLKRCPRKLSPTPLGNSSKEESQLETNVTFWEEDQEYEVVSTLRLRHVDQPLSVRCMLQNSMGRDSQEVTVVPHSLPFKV
In words: phage ELISA and binding assay on rPDGFRB-ECD; values only in FIG. 6.

The target of test [4] is T2, recombinant human extracellular domain …. The experiment in a line: phage ELISA on hIGF2R-ECD. The method, then:
After the second selection round, 94 phage clones were randomly picked and assessed for binding to hIGF2R-ECD in a phage ELISA. Clones showing affinity were analyzed by restriction enzyme analysis using Hinfl and then categorized according to their restriction pattern. From each category, multiple clones were selected, and the amino acid sequences of these binders were identified (Table 2).

Numbering of substitutions follows the chain as printed.

T1 sequence (P09619 33-532): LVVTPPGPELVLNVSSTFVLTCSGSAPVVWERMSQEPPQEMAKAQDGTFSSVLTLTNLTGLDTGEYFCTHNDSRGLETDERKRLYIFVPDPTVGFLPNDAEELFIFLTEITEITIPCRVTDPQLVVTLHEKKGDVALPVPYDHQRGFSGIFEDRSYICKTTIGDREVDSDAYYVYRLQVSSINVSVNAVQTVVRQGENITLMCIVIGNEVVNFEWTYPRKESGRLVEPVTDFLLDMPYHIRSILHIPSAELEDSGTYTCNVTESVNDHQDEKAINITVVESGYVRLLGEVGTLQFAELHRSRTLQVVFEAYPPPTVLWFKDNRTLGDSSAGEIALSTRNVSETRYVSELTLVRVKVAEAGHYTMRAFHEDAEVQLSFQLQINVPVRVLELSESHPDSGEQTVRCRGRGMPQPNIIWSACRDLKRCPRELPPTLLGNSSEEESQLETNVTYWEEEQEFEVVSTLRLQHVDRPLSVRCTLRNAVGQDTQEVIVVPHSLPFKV

B1: SP14P (VHH)
VHH: EVQLVESGGGLVQAGDSLRLSCVVSGLTFSRYGMGWFRQATGKEREFVGGISVGSSGTMYPNSVKGRFTISRDNAKSTVYLQMNSLKPEDTAVYFCAAIDQGSFVQQRDYRYWGQGTQVTVSS
notes: From libraries 1 and 2 (raised against hPDGFRB)
In the case of B1, the binding result in test [1] is on record as “binds”.

B2: 13F11-13F11-A647 (VHH)
chain: EVQLVESGGRLVQPGDSLRLSCAASGRTFSDNAMGWFRQAPGKERRFVAGISWAGGSTYYSDSVKGRFTISRDNAKNTVYLQMNSLKPEDTAVYYCAAGLRAWVQRMPKDYNYWGQGTQVTVSSGGGGSGGGGSGGGGSEVQLVESGGRLVQPGDSLRLSCAASGRTFSDNAMGWFRQAPGKERRFVAGISWAGGSTYYSDSVKGRFTISRDNAKNTVYLQMNSLKPEDTAVYYCAAGLRAWVQRMPKDYNYWGQGTQVTVSS
modifications: Alexa Fluor 647 coupled by maleimide to the C-terminal free cysteine, which is not in the letters
notes: Bivalent tandem VHH; not shown: C-terminal tail: free Cys, possible thrombin site and His6 tag
Take B2: the dissociation constant (Kd) – broadly, a measure of binding affinity in units of concentration – in test [2] was 3.1 nM.

B3: SP30P (VHH)
VHH: EVQLVESGGGLVQAGGSLRLSCAASRGTFGTDIMGWFRQAPGKEREFVAAISWRGANTYYGYSVKGRFTISRDNAKNTMYLQMADLKPEDTADYYCGVHLNGTPYYYASGYRYWGQGTQVTVSS
notes: From libraries 3 and 4 (raised against rPDGFRB)
Take B3: in test [3], the binding result is reported as “binds”.

B4: SP31P (VHH)
VHH: B3 VHH with D32Y
notes: as for B3
B4: in test [3], the binding result is listed as “binds”.

B5: 13A2 (VHH)
VHH: EVQLVESGGGLVQAGGSLRLSCAASGIIFSANTVGWYRQVPGKERDVVASITSGDSTYYGDSVRDRFTISRDNAKNTVYLQMNSLKPDDTAIYYCRARTTDGSYWGQGTQVTVSS
notes: On phage in the phage ELISA; tail applies to the purified protein
As to B5, the binding result in test [4] is “binds”.

B6: 13B12 (VHH)
VHH: B5 VHH with S30G, G54V, D65G, D88E
notes: as for B5
With B6, the binding result in test [4] is recorded as “binds”.

B7: SP01P (VHH)
VHH: EVQLVESGGGLAQAGGSLRLSCVASGNIDSANGMAWYRQAPGKQRELVAHITSGTSYYVASVEGRFTISRANAKDTWYLQMNSLKPEDTGVYYCFPIGLSAHWSQGTQVTVSS
notes: as for B1
In the case of B7, the binding result in test [1] was “binds”.

B8: 13F11-13E8-A647 (bispecific antibody)
chain: EVQLVESGGRLVQPGDSLRLSCAASGRTFSDNAMGWFRQAPGKERRFVAGISWAGGSTYYSDSVKGRFTISRDNAKNTVYLQMNSLKPEDTAVYYCAAGLRAWVQRMPKDYNYWGQGTQVTVSSGGGGSGGGGSGGGGSEVQLVESGGGLVQAGGSLRLSCAASRSISPMGWYRQAPGKQRELVAIMPSSGPPIYADSVQGRFTISRDNAKNTVYLQMNSLKPEDTAVYYCNVGGGYWGQGTQVTVSS
modifications: Alexa Fluor 647 coupled by maleimide to the C-terminal free cysteine, which is not in the letters
notes: Biparatopic tandem VHH; not shown: C-terminal tail: free Cys, possible thrombin site and His6 tag
Regarding B8, in test [2], the Kd worked out at 2.5 nM.

B9: SP02P (VHH)
VHH: EVQLVESGGGLVQAGGSLRLSCAASESISSIEQMGWFRQAPGKQRALVAINTYGGRTVYTNSVEGRFTMSRDSAKNMVYLQMTSLEPEDTAVYYCYAQTTAWRGGVWGQGTQVTVSS
notes: as for B1
For B9, in test [1], the binding result is “binds”.

B10: SP05P (VHH)
VHH: EVQLVESGGGLVQAGGSLRLSCAASGRTSFSGYAMAWFRQAPGKERDFVASITWSYGYTYYTDSAQGRFTISRDSAKNTVYLEMNSLKPEDTAVYYCAADPKASRFRILREYAYWGQGTQVTVSS
notes: as for B1
For B10, in test [1], the binding result was “binds”.

B11: SP12P (VHH)
VHH: EVQLVESGGGLVQAGGSLRLSCVISGRTSPTYPMGWFRQSPGNEREFVASINWSGGWRNYADSVKGRFTISRDDAKNTVYLQMNSLKPEDTAVYYCARGQYSSGTPVYAHEYAYWGQGTQVTVSS
notes: as for B1
With B11, the binding result in test [1] is “binds”.

B12: SP20P (VHH)
VHH: B11 VHH with G66D
notes: as for B1
B12: in test [1], the binding result is on record as “binds”.

B13: 13G12 (VHH)
VHH: EVQLVESGGGLVQAGGSLRLSCAASGRAFSISSMSWFRQAPGKERVVVASIAWSGDSTYYADSVQGRFTISKDNAKNTLSLQMNSLKPEDTAVYYCSAYTQVSVNNRYWGQGTQVTVSS
notes: the first entry is used; On phage in the phage ELISA
For the molecule B13, the binding result in test [4] was “binds”.

B14: SP10P (VHH)
VHH: EVQLVESGGGLVQAGGSLRLSCAASGRTFNGYAMGWFRQAPGKERDFVAAITWSYGYTHYAESVKGRFSISRDSANNMVYLEMNSLKPEDTAVYYCAADPKASRFRTLRRYDYWGQGTQVTVSS
notes: as for B1
With B14, the binding result in test [1] is reported as “binds”.

B15: 13B7 (VHH)
VHH: EVQLVESGGGLVQAGGSLRLSCAASRSISPMGWYRQAPGKQRELVAIMPSSGTPIYADSVQGRFTISRDNAKNTVYLQMNSLKPEDTAVYYCNVGGGYWGQGTQVTVSS
notes: as for B5
For the molecule B15, in test [4], the binding result is given as “binds”.

B16: SP08P (VHH)
VHH: EVQLVESGGGLVQAGGSLRLSCAASGRTFNGYAMAWFRQAPGKERDFVASITWSYGYTYYADSAQGRFTISRDSAKNTVYLEMNSLKPEDTAVYYCAADPKASRFRILRQYAHWGQGTQVTVSS
notes: as for B1
Regarding B16, the binding result in test [1] was “binds”.

B17: SP27P (VHH)
VHH: EVQLVESGGGLVQIGDSLRLSCAASGGTFNRYGMGWFRQAPGKEREFVAAIRWDGVDTNYADFVKGRFTISRYNAKNTAYLQMNSLKPEDTAVYYCAADRRGLYTKHAHRYDYWGQGTQVTVSS
notes: as for B3
Regarding B17, the binding result in test [3] is given as “binds”.

B18: 13A8 (VHH)
VHH: EVQLVESGGGLVPAGGSLRLSCAASGRTFSNYAMGWFRQAPGKERKFVATISWSGGVTYYADSVKGRFTISRDNAKNTVYLLMNSLKPEDTAVYYCAAKRDSSSYDHRRYDYWGQGTQVTVSS
notes: On phage in the phage ELISA; purified from E. coli in the other assays
As for B18, the binding result in test [4] is listed as “binds”.

B19: 13D11 (VHH)
VHH: EVQLVESGGGLVQAGGSLRLSCAASGSIFSINYMAWYRQAPGKEREVVASMSWRRDSTYLADSVQGRFTISRNNAKNTMYLQMNSLKPEDTALYYCKANDYWGQGTQVTVSS
notes: as for B5
Regarding B19, in test [4], the binding result was “binds”.

B20: 13A3 (VHH)
VHH: B19 VHH with S30R, I31L, W53R, R55S, S63A, R72M, K76G
notes: as for B5
On to B20, for which, in test [4], the binding result is “binds”.

B21: 13F4 (VHH)
VHH: B19 VHH with A23V, A40T, W53R, R55S, S63A, K76G
notes: as for B5
Take B21: the binding result in test [4] was “binds”.

B22: 13E5 (VHH)
VHH: EVQLVESGGGLVQAGGSLRLSCAASGLTFSRYTMSWYRQAPGKEREVVAAISSGDSTYHEDSVKGRFIISRDNAKNTVYLQMNSLKTEDTAVYYCRANGPGTYWGQGTQVTVSS
notes: as for B5
For the molecule B22, in test [4], the binding result was “binds”.

B23: SP36P (VHH)
VHH: EVQLVESGGGLVQAGGSLRLSCTPSITTAGTTIMAWFRQAPGNEREFVAAIWGSKTAYGDSMKGRLTISRDNVRDNGQKTVFLQMNNLQLQDTATYYCAASSGGYVHSSTSYEIWGRGTQVTVSS
notes: as for B3
For the molecule B23, in test [3], the binding result is “binds”.

B24: SP13P (VHH)
VHH: EVQLVESGGGLVQPGGSLRLSCAASESIFSINYMAWYRQAPGKQRELVAFSIDGSSTNYVDSVRGRFTASRDNAENTLYLQMNSLKPEDTAVYYCYAQGNTWAAGVWGQGTQVTVSS
notes: as for B1
For B24, in test [1], the binding result is given as “binds”.

B25: SP28P (VHH)
VHH: EVQLVESGGGLVQAGGSLRLSCAASGSIVSFNGINWYRQAPGKQREWVGGITQGGNTMYADSVRGRFTISRDNTKNTMYLQMNSLKPEDTAVYYCRRPPVASWGQGTQVTVSS
notes: as for B3
On to B25, for which, in test [3], the binding result is given as “binds”.

The values above are taken from patent publication US20240325562A1 (LINXIS B V, published 2024).
